Numbering of substitutions follows the chain as printed.

Results on ten molecules are retold here after US20040067231A1 (published 2004).

To fix the notation:
B1: antibody having both a humanized H-chain version “a” and a chimeric L-chain (antibody, V domains shown)
VH: QVQLVESGGGVVQPGRSLRLSCAASGFTFSSYGMSWVRQAPGKGLEWVATISSGGSYTYYPDSVKGRFTISRDNSKNTLYLQMNSLRAEDTAVYYCARQTTMTYFAYWGQGTLVTVSS
VL: QLVLTQSSSASFSLGASAKLTCTLSSQHSTYTIEWYQQQPLKPPKYVMDLKQDGSHSTGDGIPDRFSGSSSGADRYLSISNIQPEDEAMYICGVGDTIKEQFVYVFGGGTKVTVLG
notes: H-chain C-region is human Cγ1
B2: mouse FR1,2/human FR3,4 hybrid antibody with L-chain m/hMBC1Ldλ (antibody, V domains shown)
VH: B1 VH
VL: QLVLTQSSSASFSLGASAKLTCTLSSQHSTYTIEWYQQQPLKPPKYVMDLKQDGSHSTGDGIPDRFSGSSSGAERYLTISSLQSEDEADYICGVGDTIKEQFVYVFGGGTKLTVL
notes: H-chain from hMBC1HcDNA/pCOS1 (humanized version a, human Cγ1); L-chain C-region human λ; Expressed in COS-7 cells
B3: humanized #23-57-137-1 antibody having L-chain version “j” (antibody, V domains shown)
VH: B1 VH
VL: QLVLTQSPSASASLGASVKLTCTLSSQHSTYTIEWYQQQPEKGPKYLMDLKQDGSHSTGDGIPDRFSGSSSGAERYLTISSLQSEDEADYYCGVGDTIKEQFVYVFGGGTKLTVLG
notes: Humanized H-chain version a with human Cγ1; L-chain with human λ C-region (Cλ/pUC19); also called hMBC1HcDNA/pCOS1 and hMBC1Ljλ/pCOS1
B4: humanized #23-57-137-1 antibody having L-chain version “q” (antibody, V domains shown)
VH: B1 VH
VL: B3 VL with Y91I
notes: Humanized H-chain version a with human Cγ1; L-chain with human λ C-region; also called humanized antibody L-chain version “q”; hMBC1HcDNA and hMBC1Lqλ
B5: humanized #23-57-137-1 antibody having L-chain version “t” (antibody, V domains shown)
VH: B1 VH
VL: B3 VL with K45R, L47V, Y91I
notes: Humanized H-chain version a with human Cγ1; L-chain with human λ C-region; also called hMBC1HcDNA/pCOS1 and hMBC1Ltλ/pCOS1
B6: mouse FR1,2/human FR3,4 hybrid antibody with L-chain m/hMBC1Laλ (antibody, V domains shown)
VH: B1 VH
VL: B2 VL with I91Y
notes: as for B2
B7: humanized #23-57-137-1 antibody having L-chain version “l” (antibody, V domains shown)
VH: B1 VH
VL: B3 VL with L47V
notes: Humanized H-chain version a with human Cγ1; L-chain with human λ C-region; also called hMBC1HcDNA/pCOS1 and hMBC1Llλ/pCOS1
B8: human FR1/mouse FR2,3,4 hybrid antibody with L-chain hmmMBC1L(λ) (antibody, V domains shown)
VH: B1 VH
VL: B2 VL with S8P, F12A, A18V, E74D, T78S, S81N, L82I, S84P, D89M, L112V
notes: H-chain from hMBC1HcDNA/pCOS1 (humanized version a, human Cγ1); L-chain C-region human λ; Expressed in COS-7 cells; also called FR1/FR2 hybrid antibody
B9: humanized #23-57-137-1 antibody having L-chain version “m” (antibody, V domains shown)
VH: B1 VH
VL: B3 VL with K45R
notes: Humanized H-chain version a with human Cγ1; L-chain with human λ C-region; also called hMBC1HcDNA/pCOS1 and hMBC1Lmλ/pCOS1
B10: humanized #23-57-137-1 antibody having L-chain version “o” (antibody, V domains shown)
VH: B1 VH
VL: B3 VL with K45R, L47V
notes: Humanized H-chain version a with human Cγ1; L-chain with human λ C-region; also called hMBC1HcDNA/pCOS1 and hMBC1Loλ/pCOS1

The experiment concerns the target T1, human PTHrP (1-34) (human).
T1 construct: Synthetic peptide (Peninsula; Peptide Research Institute); Coated on the ELISA plate at 1 µg/ml; used in solid phase RIA for the hybridoma screening; also called parathyroid hormone related peptide (1-34)
Nature of the experiment: ELISA on coated human PTHrP (1-34). As for the experimental part: An ELISA plate for determining antigen-binding ability was prepared as follows. Each well of a 96-well ELISA plate (Maxisorp, NUNC) was coated with 100 μl of a coating buffer containing 1 μg/ml of human PTHrP (1-34) and then blocked with 200 μl of a dilution buffer. Subsequently, each well was added with each of the serial dilutions of the COS-7 cell culture supernatant in which each of the hybrid antibodies and humanized antibodies was expressed, or added with each of the serial dilutions of each of the hybrid antibodies and humanized antibodies in a purified form. The plate was incubated at room temperature and washed with PBS-Tween 20. Subsequently, each well was added with 100 μl of alkaline phosphatase-conjugated goat anti-human IgG antibody (TAGO). The plate was incubated at room temperature and washed with PBS-Tween 20. Subsequently, each well was added with 1 mg/ml of a substrate solution (“Sigma 104”, p-nitrophenylphosphoric acid, SIGMA). The solution was measured on its absorbance at 405 nm using Microplate Reader (Bio Rad).
(An ELISA detects its analyte on a solid surface through an enzyme-linked reagent.)
As to B1, the binding result was “binds”. Take B2: the binding result was “binds”. In the case of B3 it was “binds”; in that of B4, “binds”; in that of B5, “binds”. In the case of B6, the binding result is reported as “binds”. In the case of B7 it was “binds”; in that of B8, “binds”; in that of B9, “binds”.

As for B10, the binding result is listed as “binds”.
